Here are results for 4 variants from IntAct's records for PubMed 29892012.

B1: TBC1 domain family member 22B (Homo sapiens), Q9NU19 (parent)
chain: MAAENSKQFWKRSAKLPGSIQPVYGAQHPPLDPRLTKNFIKERSKVNTVPLKNKKASSFHEFARNTSDAWDIGDDEEEDFSSPSFQTLNSKVALATAAQVLENHSKLRVKPERSQSTTSDVPANYKVIKSSSDAQLSRNSSDTCLRNPLHKQQSLPLRPIIPLVARISDQNASGAPPMTVREKTRLEKFRQLLSSQNTDLDELRKCSWPGVPREVRPITWRLLSGYLPANTERRKLTLQRKREEYFGFIEQYYDSRNEEHHQDTYRQIHIDIPRTNPLIPLFQQPLVQEIFERILFIWAIRHPASGYVQGINDLVTPFFVVFLSEYVEEDVENFDVTNLSQDMLRSIEADSFWCMSKLLDGIQDNYTFAQPGIQKKVKALEELVSRIDEQVHNHFRRYEVEYLQFAFRWMNNLLMRELPLRCTIRLWDTYQSEPEGFSHFHLYVCAAFLIKWRKEILDEEDFQGLLMLLQNLPTIHWGNEEIGLLLAEAYRLKYMFADAPNHYRR
partner: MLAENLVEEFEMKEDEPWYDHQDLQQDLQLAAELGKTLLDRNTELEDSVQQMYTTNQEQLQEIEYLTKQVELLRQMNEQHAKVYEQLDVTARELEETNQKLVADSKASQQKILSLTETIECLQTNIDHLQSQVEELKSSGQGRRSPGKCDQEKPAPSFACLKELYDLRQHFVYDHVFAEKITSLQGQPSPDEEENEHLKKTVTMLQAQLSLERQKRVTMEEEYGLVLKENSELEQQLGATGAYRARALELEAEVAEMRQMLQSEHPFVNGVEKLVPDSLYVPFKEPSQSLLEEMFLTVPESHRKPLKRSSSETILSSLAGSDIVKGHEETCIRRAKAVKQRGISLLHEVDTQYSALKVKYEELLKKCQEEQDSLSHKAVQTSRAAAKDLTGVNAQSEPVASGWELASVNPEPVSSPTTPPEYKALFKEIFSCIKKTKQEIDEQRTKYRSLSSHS
B2: Myotubularin-related protein 9 (Homo sapiens), Q96QG7 (parent)
chain: MEFAELIKTPRVDNVVLHRPFYPAVEGTLCLTGHHLILSSRQDNTEELWLLHSNIDAIDKRFVGSLGTIIIKCKDFRIIQLDIPGMEECLNIASSIEALSTLDSITLMYPFFYRPMFEVIEDGWHSFLPEQEFELYSSATSEWRLSYVNKEFAVCPSYPPIVTVPKSIDDEALRKVATFRHGGRFPVLSYYHKKNGMVIMRSGQPLTGTNGRRCKEDEKLINATLRAGKRGYIIDTRSLNVAQQTRAKGGGFEQEAHYPQWRRIHKSIERYHILQESLIKLVEACNDQTHNMDRWLSKLEASNWLTHIKEILTTACLAAQCIDREGASILIHGTEGTDSTLQVTSLAQIILEPRSRTIRGFEALIEREWLQAGHPFQQRCAQSAYCNTKQKWEAPVFLLFLDCVWQILRQFPCSFEFNENFLIMLFEHAYASQFGTFLGNNESERCKLKLQQKTMSLWSWVNQPSELSKFTNPLFEANNLVIWPSVAPQSLPLWEGIFLRWNRSSKYLDEAYEEMVNIIEYNKELQAKVNILRRQLAELETEDGMQESP
partner: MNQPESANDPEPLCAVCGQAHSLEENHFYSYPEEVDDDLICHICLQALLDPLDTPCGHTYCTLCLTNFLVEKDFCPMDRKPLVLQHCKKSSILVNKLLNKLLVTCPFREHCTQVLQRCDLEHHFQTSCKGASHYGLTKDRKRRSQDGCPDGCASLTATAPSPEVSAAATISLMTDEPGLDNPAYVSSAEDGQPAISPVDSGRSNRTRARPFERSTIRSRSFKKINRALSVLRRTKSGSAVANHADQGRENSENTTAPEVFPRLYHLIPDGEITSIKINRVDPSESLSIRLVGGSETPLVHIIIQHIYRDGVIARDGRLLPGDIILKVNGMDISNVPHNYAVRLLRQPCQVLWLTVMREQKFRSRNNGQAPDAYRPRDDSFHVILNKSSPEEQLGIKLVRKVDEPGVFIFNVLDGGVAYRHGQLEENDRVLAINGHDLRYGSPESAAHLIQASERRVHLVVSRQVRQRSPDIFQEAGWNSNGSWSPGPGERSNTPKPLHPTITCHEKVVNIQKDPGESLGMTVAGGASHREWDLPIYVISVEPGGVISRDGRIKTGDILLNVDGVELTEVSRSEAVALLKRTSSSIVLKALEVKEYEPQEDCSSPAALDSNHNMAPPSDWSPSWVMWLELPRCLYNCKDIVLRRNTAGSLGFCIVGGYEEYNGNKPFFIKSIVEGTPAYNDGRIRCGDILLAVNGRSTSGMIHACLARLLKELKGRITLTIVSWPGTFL
B3: BTB/POZ domain-containing protein KCTD14 (Homo sapiens), Q9BQ13 (parent)
chain: MWQGCAVERPVGRMTSQTPLPQSPRPRRPTMSTVVELNVGGEFHTTTLGTLRKFPGSKLAEMFSSLAKASTDAEGRFFIDRPSTYFRPILDYLRTGQVPTQHIPEVYREAQFYEIKPLVKLLEDMPQIFGEQVSRKQFLLQVPGYSENLELMVRLARAEAITARKSSVLVCLVETEEQDAYYSEVLCFLQDKKMFKSVVKFGPWKAVLDNSDLMHCLEMDIKAQGYKVFSKFYLTYPTKRNEFHFNIYSFTFTWW
B4: Cell division cycle-associated 7-like protein (Homo sapiens), Q96GN5 (parent)
chain: MELATRYQIPKEVADIFNAPSDDEEFVGFRDDVPMETLSSEESCDSFDSLESGKQQDVRFHSKYFTEELRRIFIEDTDSETEDFAGFTQSDLNGKTNPEVMVVESDLSDDGKASLVSEEEEDEEEDKATPRRSRSRRSSIGLRVAFQFPTKKLANKPDKNSSSEQLFSSARLQNEKKTILERKKDCRQVIQREDSTSESEDDSRDESQESSDALLKRTMNIKENKAMLAQLLAELNSMPDFFPVRTPTSASRKKTVRRAFSEGQITRRMNPTRSARPPEKFALENFTVSAAKFAEEFYSFRRRKTIGGKCREYRRRHRISSFRPVEDITEEDLENVAITVRDKIYDKVLGNTCHQCRQKTIDTKTVCRNQGCCGVRGQFCGPCLRNRYGEDVRSALLDPDWVCPPCRGICNCSYCRKRDGRCATGILIHLAKFYGYDNVKEYLESLQKELVEDN
partner: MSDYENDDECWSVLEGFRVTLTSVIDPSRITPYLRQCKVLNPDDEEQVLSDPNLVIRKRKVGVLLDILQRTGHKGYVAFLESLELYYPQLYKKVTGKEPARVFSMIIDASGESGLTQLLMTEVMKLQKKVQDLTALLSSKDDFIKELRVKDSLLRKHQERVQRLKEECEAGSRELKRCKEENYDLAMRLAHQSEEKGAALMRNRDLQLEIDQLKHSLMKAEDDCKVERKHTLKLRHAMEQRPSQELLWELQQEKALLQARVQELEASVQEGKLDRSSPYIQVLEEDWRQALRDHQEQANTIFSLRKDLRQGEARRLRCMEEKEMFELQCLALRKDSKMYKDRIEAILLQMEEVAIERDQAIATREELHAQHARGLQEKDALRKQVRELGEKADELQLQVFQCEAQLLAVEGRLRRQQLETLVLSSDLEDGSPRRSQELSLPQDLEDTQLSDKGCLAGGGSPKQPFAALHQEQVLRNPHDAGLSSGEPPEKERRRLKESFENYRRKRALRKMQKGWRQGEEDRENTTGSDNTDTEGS

Variants of B1 are the subject of the first assay. The conditions noted are these: with cdr2_human CDR2, Q01850.
As to A349T, the “effect of a mutation on the interaction” value was “disrupting interaction strength”.

Another assay covers variants of B2. The conditions noted are these: with lnx1_human LNX1, Q8TBB1.
R359S: the “effect of a mutation on the interaction” value is on record as “with no effect”.

In a further assay the parent is B3. The conditions noted are these: with stk16_human STK16, O75716.
Sequence of stk16_human STK16, O75716 (O75716 whole entry): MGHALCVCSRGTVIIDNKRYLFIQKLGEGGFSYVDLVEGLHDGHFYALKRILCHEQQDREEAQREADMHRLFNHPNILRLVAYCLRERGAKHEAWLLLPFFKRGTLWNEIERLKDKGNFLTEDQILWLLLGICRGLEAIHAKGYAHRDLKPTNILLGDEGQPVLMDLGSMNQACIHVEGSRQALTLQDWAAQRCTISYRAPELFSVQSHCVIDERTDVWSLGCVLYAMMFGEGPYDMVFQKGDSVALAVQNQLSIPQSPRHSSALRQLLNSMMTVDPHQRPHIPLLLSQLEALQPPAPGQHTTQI
Consider V168M, for which the “effect of a mutation on the interaction” value is “disrupting interaction strength”.

A further assay covers variants of B4. The conditions noted are these: with card9_human CARD9, Q9H257.
For R268H, the “effect of a mutation on the interaction” value is listed as “with no effect”.
